{"source": "paper PMC6251626", "target": "αβ-tubulin heterodimer purified from porcine brains (porcine) (UniProt P02550)", "assay": "ITC; DRP or DRPΔN (135-250 μM) injected into αβ-tubulin (20-40 μM); 25°C, 50 mM HEPES pH 7.3, 100 mM KCl, 1 mM MgCl2, 50 μM GDP"}
{"substance": "DRPΔN (DARPin D1 without its N-terminal ankyrin repeat) (designed binder)", "values": [{"measurement": "Kd", "result": 461, "unit": "nM"}]}
